The values that follow come from the supplement of paper PMC7877785.

This data set in a line: self-splicing fitness, log relative to wild type (ln ratio); higher = more splicing; Tetrahymena group I intron in knt gene, E. coli kanamycin selection, DiMSum; sequences stand for … in CUCUCU…GGAGGGAAAAGUUAUCAGGCAUGCACCUGGUAGCUAGUCUUUAAACCAAUAGAUUGCAUCGGUUUAAAAGGCAAGACCGUCAAAUUGCGGGAAAGGGGUCAACAGCCGUUCAGUACCAAGUCUCAGGGGAAACUUUGAGAUGGCCUUGCAAAGGGUAUGGUAAUAAGCUGACGGACAUGGUCCUAACCACGCAGCCAAGUCCUAAGUCAACAGAUCUUCUGUUGAUAUGGAUGCAGUUCACAGACUAAAUGUCGGUCGGGGAAGAUGUAUUCUUCUCAUAAGAUAUAGUCGGACCUCUCCUUAAUGGGAGCUAGCGGAUGAAGUGAUGCAACACUGGAGCCGCUGGGAACUAAUUUGUAUGCGAAAGUAUAUUGAUUAGUUUUGGAGUACUCGUGGUCG
The method, boiled down:
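Pooled colonies went to amplicon sequencing on an Illumina HiSeq 2500 after six replicate transformations. The plates were LB agar with 100 μg/mL carbenicillin, 50 μM IPTG and 0.2% rhamnose, with or without 25 μg/mL kanamycin, incubated overnight at 37°C or 30°C. The E. coli BL21(DE3) library had all eight P1ex-region intron nucleotides randomised, the intron placed in the knt kanamycin-resistance gene on pET-22b(+). DiMSum fitness is the error-weighted combination of replicate fold changes, kanamycin against none, normalised to wild type.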

± gives the uncertainty stated by the source.

For GCCUAGCAAUAUUACGGCUG, the “self-splicing fitness (ln)” value (30 °C) was -1.88 ± 0.15 and the “self-splicing fitness (ln)” value (37 °C) is -3.29 ± 0.42.
With GAUUAGCAAUAUUACGUAAA, the “self-splicing fitness (ln)” value is, setting by setting: (30 °C) -2.19 ± 0.15; (37 °C) -0.793 ± 0.19.
Turning to GGGCAGCAAUAUUACGGGGU, the “self-splicing fitness (ln)” value (37 °C) is -2.84 ± 0.34.
On to CAGAAGCAAUAUUACGUGGU, for which the “self-splicing fitness (ln)” value by setting is: (30 °C) -3.58 ± 0.17; (37 °C) -1.86 ± 0.16.
As to CGAUAGCAAUAUUACGCUUC, the “self-splicing fitness (ln)” value was -3.11 ± 0.26 (30 °C) and -2.99 ± 0.47 (37 °C).
For the sequence UUUGAGCAAUAUUACGUCUU, the “self-splicing fitness (ln)” value was -3.77 ± 0.32 (30 °C) and -3.16 ± 0.43 (37 °C).
On to UGCGAGCAAUAUUACGUUGA, for which the “self-splicing fitness (ln)” value runs as follows: (30 °C) -3.05 ± 0.27; (37 °C) -3.53 ± 0.32.
Take UACAAGCAAUAUUACGCAUU: the “self-splicing fitness (ln)” value is, setting by setting: (30 °C) -3.38 ± 0.19; (37 °C) -1.63 ± 0.16.
In the same order, the values of UAUGAGCAAUAUUACGACGU are -3.11 ± 0.21 and -2.62 ± 0.3.
Turning to CGAUAGCAAUAUUACGGAUA, the “self-splicing fitness (ln)” value (37 °C) was -0.838 ± 0.19.
Consider GCUUAGCAAUAUUACGCGAG, for which the “self-splicing fitness (ln)” value was -2.04 ± 0.22 (30 °C) and -2.56 ± 0.33 (37 °C).
In the same order, the values of UAUAAGCAAUAUUACGGGGG are -3.88 ± 0.29 and -3.09 ± 0.24.
For CCGAAGCAAUAUUACGUAAA, the “self-splicing fitness (ln)” value runs as follows: (30 °C) -3.14 ± 0.22; (37 °C) -2.12 ± 0.33.
Take GCGAAGCAAUAUUACGCGGU: the “self-splicing fitness (ln)” value (30 °C) is -2.84 ± 0.29 and the “self-splicing fitness (ln)” value (37 °C) was -1.65 ± 0.32.
For UUUCAGCAAUAUUACGUCGA, the “self-splicing fitness (ln)” value runs as follows: (30 °C) -1.11 ± 0.11; (37 °C) -1.25 ± 0.12.
GCUCAGCAAUAUUACGUUUA: the “self-splicing fitness (ln)” value by setting is: (30 °C) -1.44 ± 0.09; (37 °C) -0.861 ± 0.083.
Consider CUCUAGCAAUAUUACGGGUG, for which the “self-splicing fitness (ln)” value is, setting by setting: (30 °C) -1.57 ± 0.092; (37 °C) -0.947 ± 0.1.
On to UACAAGCAAUAUUACGCGCU, for which the “self-splicing fitness (ln)” value reads like this: (30 °C) -1.39 ± 0.12; (37 °C) -0.322 ± 0.11.
Consider GCAAAGCAAUAUUACGCGGU, for which the “self-splicing fitness (ln)” value by setting is: (30 °C) -4.16 ± 0.22; (37 °C) -2.67 ± 0.24.
UUCCAGCAAUAUUACGGUGA: the “self-splicing fitness (ln)” value runs as follows: (30 °C) -0.226 ± 0.061; (37 °C) 0.234 ± 0.077.
Consider GCUAAGCAAUAUUACGCGAC, for which the “self-splicing fitness (ln)” value by setting is: (30 °C) -2.11 ± 0.14; (37 °C) -1.54 ± 0.17.
As to GUCAAGCAAUAUUACGUGCU, the “self-splicing fitness (ln)” value was -3.07 ± 0.13 (30 °C) and -2.7 ± 0.23 (37 °C).
Consider AACCAGCAAUAUUACGCUCA, for which the “self-splicing fitness (ln)” value was -0.325 ± 0.049 (30 °C) and 0.493 ± 0.072 (37 °C).
As for CCCGAGCAAUAUUACGUUUA, the “self-splicing fitness (ln)” value is, setting by setting: (30 °C) -3.42 ± 0.17; (37 °C) -2.75 ± 0.16.
In the case of UGGGAGCAAUAUUACGGCCA, the “self-splicing fitness (ln)” value was -1.58 ± 0.13 (30 °C) and -0.684 ± 0.16 (37 °C).
Regarding GUAGAGCAAUAUUACGUACC, the “self-splicing fitness (ln)” value reads like this: (30 °C) -3.88 ± 0.47; (37 °C) -1.59 ± 0.37.
For the sequence CGCAAGCAAUAUUACGGAUU, the “self-splicing fitness (ln)” value by setting is: (30 °C) -4.84 ± 0.34; (37 °C) -1.5 ± 0.19.
With CCGCAGCAAUAUUACGACAA, the “self-splicing fitness (ln)” value is -3.68 ± 0.23 (30 °C) and -2.21 ± 0.24 (37 °C).
Regarding UUAGAGCAAUAUUACGGUAC, the “self-splicing fitness (ln)” value is, setting by setting: (30 °C) -3.85 ± 0.26; (37 °C) -2.79 ± 0.4.
Take CCUGAGCAAUAUUACGCAAC: the “self-splicing fitness (ln)” value is -2.76 ± 0.33 (30 °C) and -1.78 ± 0.27 (37 °C).
Take UGCUAGCAAUAUUACGAUUG: the “self-splicing fitness (ln)” value runs as follows: (30 °C) -1.16 ± 0.13; (37 °C) -1.51 ± 0.14.
UCGUAGCAAUAUUACGGGAA: the “self-splicing fitness (ln)” value (30 °C) was -1.71 ± 0.2 and the “self-splicing fitness (ln)” value (37 °C) was -1.06 ± 0.16.
Take UAGCAGCAAUAUUACGCGAG: the “self-splicing fitness (ln)” value (30 °C) was -1.83 ± 0.097 and the “self-splicing fitness (ln)” value (37 °C) was -0.971 ± 0.11.
In the same order, the values of GGGGAGCAAUAUUACGGGUA are -2.64 ± 0.26 and -2.25 ± 0.34.
In the case of ACAUAGCAAUAUUACGGACC, the “self-splicing fitness (ln)” value is, setting by setting: (30 °C) -1.56 ± 0.12; (37 °C) -1.84 ± 0.23.
As for AGGUAGCAAUAUUACGCAUG, the “self-splicing fitness (ln)” value by setting is: (30 °C) -2.022 ± 0.017; (37 °C) -1.22 ± 0.034.
For the sequence AAUCAGCAAUAUUACGCCAA, the “self-splicing fitness (ln)” value (30 °C) was -1.61 ± 0.14 and the “self-splicing fitness (ln)” value (37 °C) is -0.855 ± 0.15.
On to CCCCAGCAAUAUUACGGCGA, for which the “self-splicing fitness (ln)” value reads like this: (30 °C) -2.05 ± 0.14; (37 °C) -1.64 ± 0.14.
